# Where a chain is given by its changes, count along the chain named.
# T1: TEV-cleaved wild-type recombinant human galectin-10 (soluble, in Fab complexes, or as recombinant galectin-10 … (human, UniProt Q05315 1-142))
# T1 sequence: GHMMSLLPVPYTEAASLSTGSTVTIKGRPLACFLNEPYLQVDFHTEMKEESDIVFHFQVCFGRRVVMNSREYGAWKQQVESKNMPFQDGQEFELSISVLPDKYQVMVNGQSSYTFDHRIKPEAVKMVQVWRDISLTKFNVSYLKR
# T2: human galectin-10-His (recombinant human galectin-10 with TEV-cleavable N-terminal His-tag) (human)
# T2 construct: SEC-MALLS: dimer in solution; also called Gal10-His; humanGal10-His
# T2 chain: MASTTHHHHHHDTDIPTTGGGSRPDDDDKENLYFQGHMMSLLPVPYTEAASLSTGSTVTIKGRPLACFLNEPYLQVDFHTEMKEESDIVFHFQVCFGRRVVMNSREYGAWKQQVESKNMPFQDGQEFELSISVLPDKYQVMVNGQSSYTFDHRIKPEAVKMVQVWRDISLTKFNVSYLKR
# T3: cynomolgus galectin-10-His, WGS isoform (cynomolgus)
# T3 construct: not shown: His tag
# T3 chain: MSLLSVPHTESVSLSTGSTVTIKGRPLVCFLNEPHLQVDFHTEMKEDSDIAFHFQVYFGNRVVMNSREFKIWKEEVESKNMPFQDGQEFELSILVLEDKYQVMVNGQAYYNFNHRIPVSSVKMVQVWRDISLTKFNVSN
# T4: cynomolgus galectin-10-His, YRT isoform (cynomolgus)
# T4 construct: not shown: His tag
# T4 chain: T3 chain with K23E, G24A, L31F, F69Y, K70R, I71T, S92R
# B1: 1D11 mouse IgG1 (antibody, V domains shown)
# VH: QVQLVESGGGLVQPGGSLRLSCAASGFTFDDYAMSWVRQAPGKGLEWVSGISWNGGSTYYAESMKGRFTISRDNAKNTLYLQMNSLKSEDTAVYYCAKDRNLGYRLGYPYDYWGQGTQVTVSS
# VL: QSVLTQPPSVSGSPGETVTISCAGTSSDVGYGNYVSWYQQLPGMAPRLLIYEVNKRASGITDRFSGSKSGNTASLTISGLQSEDEGDYYCASYRSSNNAVFGGGTHLTVL
# notes: VH on mouse IgG1 heavy chain constant domains (CH1-CH2-CH3), VL on mouse lambda light chain constant domain; also called 1D011; 1D11 mIgG1
# How the values were obtained:
# [1] = target: T1, TEV-cleaved wild-type recombinant human …; assay: cell-based or functional assay
# [2] = target: T2, human galectin-10-His (recombinant …); assay: Biacore capture approach (summary table), mouse IgG1
# Procedure: The binding capacity of the mouse IgG1 antibodies to galectin-10 was analyzed on Biacore T3000. For this purpose, a capture approach was set up. A CM5 Chip was coated with polyclonal anti-mouse Fc at 8000 RU, then a fixed concentration of the mouse IgG1 antibody panel (1.5 μg/mL), diluted in HBS-EP pH7.4, was captured to reach a binding signal around 150 RU. Finally, a serial dilution of galectin-10-His (serial dilution, 1 over 2 from 5 μg/mL) diluted in HBS-EP pH7.4 was injected. Raw data were analyzed via BIA evaluation software with a blank subtraction (4-3). The kd/KD and Rmax of each mAb to galectin-10-His was determined using the Fit Kinetics simultaneous ka/kd/Binding with mass transfer/Local Rmax on BIA evaluation software.
# [3] = target: T3, cynomolgus galectin-10-His, WGS isoform; assay: ELISA, mouse IgG1 on coated cynoGal10-His_WGS (0.5 ug/mL)
# Procedure: (§1) In a similar setup to that used during the characterization of the scFv-human Fc molecules, the relative binding properties of the 7 mouse IgG1 antibodies were analyzed by ELISA. A Maxisorp plate was coated overnight with 0.5 μg/mL of human or cynomolgus WGS or YRT isoform of galectin-10-His. Then a serial dilution of each clone (from 100 nM, dilution 1/4, 12 points of dilutions) was incubated on coated galectin-10. After several washing steps, detection of the bound mouse IgG1 was carried out with an anti-mouse Fc-HRP antibody (DAMPO, Jackson ImmunoResearch, Catalog 715-035-150). Absorbance was measured at 450 nm (reference at 620 nm) with Tecan instrument. The raw data (OD values) were plotted on GraphPad Prism 7.01. The EC50 values for each antibody, calculated with a non-linear regression (log(agonist) vs. response Variable slope (four parameters)), are shown in the table below. Antibody 1D11 from the previous panel was included for comparison.
# [4] = target: T4, cynomolgus galectin-10-His, YRT isoform; assay: ELISA, mouse IgG1 on coated cynoGal10-His_YRT (0.5 ug/mL)
# Procedure: as §1
# [5] = target: T2, human galectin-10-His (recombinant …); assay: ELISA, mouse IgG1 on coated galectin-10-His (0.2 ug/mL)
# Outline: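 Serial dilutions of each antibody (from 100 nM, 1/4 steps, 12 points) were incubated on plates coated overnight with the antigen. Bound IgG1 detected with anti-mouse Fc-HRP, absorbance at 450 nm (reference 620 nm). EC50 from four-parameter variable-slope non-linear regression of OD values.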
# [6] = target: T2, human galectin-10-His (recombinant …); assay: BLI tandem on galectin-10-His; competitor: saturating 2F09 mIgG1 (10 ug/mL)
# Outline: (§2)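 In this tandem epitope-mapping format, galectin-10-His is immobilised through its His-tag on anti-His sensors. Sensors are first exposed to excess saturating antibody and then transferred without delay to competitor antibody at suboptimal concentration, and binding is recorded in nm.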
# [7] = target: T2, human galectin-10-His (recombinant …); assay: BLI tandem on galectin-10-His; competitor: saturating 6A05 mIgG1 (10 ug/mL)
# Outline: as §2
# [8] = target: T2, human galectin-10-His (recombinant …); assay: BLI tandem on galectin-10-His; competitor: saturating 6E10 mIgG1 (10 ug/mL)
# Outline: as §2
# [9] = target: T2, human galectin-10-His (recombinant …); assay: BLI tandem on galectin-10-His; competitor: saturating 6F06 mIgG1 (10 ug/mL)
# Outline: as §2
# [10] = target: T2, human galectin-10-His (recombinant …); assay: SPR Biacore T3000, mouse IgG1 captured by anti-mouse Fc, galectin-10-His as analyte
# Outline: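 Polyclonal anti-mouse Fc on a CM5 chip (8000 RU) captured each mouse IgG1 (1.5 μg/mL) to around 150 RU. Galectin-10-His was then injected as a 1:2 serial dilution from 5 μg/mL in HBS-EP pH7.4. After blank subtraction, kd/KD and Rmax came from a simultaneous ka/kd fit with mass transfer and local Rmax.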
binder,measurement,setting,value
B1,100% Inhibition of CLC formation (Conc uM),[1],0.34 µM
same,100% Solubilization of CLC (Conc uM),[1],7.86 µM
same,Kd,[2],1 nM
same,koff,[2],0.00529 s⁻¹
same,binding result,[3],no binding
same,binding result,[4],no binding
same,Bmax,[5],1.5 OD
same,EC50,[5],0.1 nM
same,binding signal (nm),[6],0.02 nm
same,binding signal (nm),[7],0.06 nm
same,binding signal (nm),[8],-0.01 nm
same,binding signal (nm),[9],0.03 nm
same,Kd,[10],1 nM
same,koff,[10],0.00529 s⁻¹
